Results taken from publication PMC3099546.

Substrate: CCCCC/C=C\C\C=C/C=C/C=C/[C@@H](SC[C@H](NC(=O)CC[C@H](N)C(=O)O)C(=O)NCC(=O)O)[C@@H](O)CCCC(=O)O
Test: purified protein

B1: gamma-glutamyl leukotrienase (GGT5) (Homo sapiens) (protein)
chain 1: SRHQAPCGPQAFAHAAVAADSKVCSDIGRAILQQQGSPVDATIAALVCTSVVNPQSMGLGGGVIFTIYNVTTGKVEVINARETVPASHAPSLLDQCAQALPLGTGAQWIGVPGELRGYAEAHRRHGRLPWAQLFQPTIALLRGGHVVAPVLSRFLHNSILRPSLQASTLRQLFFNGTEPLRPQDPLPWPALATTLETVATEGVEVFYTGRLGQMLVEDIAKEGSQLTLQDLAKFQPEVVDALEVPLGDYTLYSPPPPAGGAILSFILNVLRGFNFSTESMARPEGRVNVYHHLVETLKFAKGQRWRLGDPRSHPKLQNASRDLLGETLAQLIRQQIDGRGDHQLSHYSLAEAWGHGTG
chain 2: TSHVSVLGEDGSAVAATSTINTPFGAMVYSPRTGIILNNELLDLCERCPRGSGTTPSPVSGDRVGGAPGRCWPPVPGERSPSSMVPSILINKAQGSKLVIGGAGGELIISAVAQAIMSKLWLGFDLRAAIAAPILHVNSKGCVEYEPNFSQEVQRGLQDRGQNQTQRPFFLNVVQAVSQEGACVYAVSDLRKSGEAAGY
  Km: 10.2 ± 0.1 µM
  kcat: 3.33 s⁻¹
  kcat/Km: 317000 M⁻¹ s⁻¹
